Assay results as given in patent US20110123549A1 (KALOBIOS PHARMACEUTICALS, published 2011).
Residue numbers refer to the chain shown, from its start. One block for each binder: values may come before it.

How the values were obtained:
[1] = target: T1, EphA3 expressed on the surface of B16 mouse melanoma cells (mouse, UniProt P29319 21-983); experiment: flow cytometry on live B16 cells, 5 ug/ml IgG, anti-human IgG phycoerythrin conjugate [B16]
T1 construct: whole, on cells; Endogenous EphA3 of a tumor cell line known to express EphA3; also called B16-F10
T1 sequence (looked up): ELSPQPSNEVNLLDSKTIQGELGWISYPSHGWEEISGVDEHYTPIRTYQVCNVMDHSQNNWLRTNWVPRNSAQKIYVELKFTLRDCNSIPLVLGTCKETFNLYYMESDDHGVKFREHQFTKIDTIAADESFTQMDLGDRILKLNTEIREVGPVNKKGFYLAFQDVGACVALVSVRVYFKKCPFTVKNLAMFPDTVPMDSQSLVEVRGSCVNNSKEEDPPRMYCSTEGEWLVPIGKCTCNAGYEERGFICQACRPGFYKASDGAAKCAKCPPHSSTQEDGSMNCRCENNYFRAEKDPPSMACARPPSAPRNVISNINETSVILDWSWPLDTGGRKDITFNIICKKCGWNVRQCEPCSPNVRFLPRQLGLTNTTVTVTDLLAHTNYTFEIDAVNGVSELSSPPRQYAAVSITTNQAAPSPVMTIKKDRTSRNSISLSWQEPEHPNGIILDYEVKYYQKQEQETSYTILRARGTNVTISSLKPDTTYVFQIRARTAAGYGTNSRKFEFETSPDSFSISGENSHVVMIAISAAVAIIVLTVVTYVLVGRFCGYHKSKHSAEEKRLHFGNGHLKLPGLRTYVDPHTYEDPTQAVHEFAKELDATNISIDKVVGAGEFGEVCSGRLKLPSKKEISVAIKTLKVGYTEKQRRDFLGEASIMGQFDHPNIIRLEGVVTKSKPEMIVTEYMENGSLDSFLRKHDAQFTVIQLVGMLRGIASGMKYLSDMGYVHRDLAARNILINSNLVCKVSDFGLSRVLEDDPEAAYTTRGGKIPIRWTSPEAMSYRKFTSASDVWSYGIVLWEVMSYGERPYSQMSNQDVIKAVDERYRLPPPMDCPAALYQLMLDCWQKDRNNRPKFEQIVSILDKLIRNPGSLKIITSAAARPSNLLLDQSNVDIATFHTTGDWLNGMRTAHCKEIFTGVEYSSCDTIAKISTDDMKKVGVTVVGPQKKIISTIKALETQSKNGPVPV
Description: (§1) B16, SKme128, and LnCAP cells were blocked with 2% BSA and rat IgG and probed with engineered anti-EphA3 IgG, chimeric IIIA4 IgG or an isotype control IgG. Bound antibody was detected by an anti-human IgG Phycoerythrin conjugate using a Facs Caliber flow cytometry (BD). Dead cells were excluded by propidium iodide staining For each graph, the control antibody profile is the left-most curve shown in the graph.
(§2) Typically, 3×10⁶ cells of SKme128, LnCAP and B16-F10 were collected by centrifugation at 3000 rpm for 3 minutes. Media were removed and the cells blocked with 2% BSA in PBS for 30 minutes at 4° C. followed by a second block with 10 μg/ml rat IgG for 30 minutes at 4° C. Cells were pelleted, re-suspended in 1.5 ml PBS and divided into 500 μl aliquots. Each aliquot was probed separately with 5 μg/ml of control IgG, humaneered IgG or chimeric IIIA4 IgG for 45 minutes at 4° C. The samples were washed once in PBS and anti-human IgG-phycoerythrin-conjugate was added. After 45 minutes, cells were washed once, re-suspended in PBS and analyzed by flow cytometry using a FACS Caliber flow cytometery. Propidium iodide was added just prior to analysis to exclude dead cells.
(§3) The exemplary engineered antibody was also tested for binding to EphA3 expressed on the surface of live cells. […] Bound antibody was detected using flow cytometry by an anti-human IgG phycoerythrin conjugate (FIG. 5). […]

[2] = target: T2, EphA3-Fc recombinant fusion protein (UniProt P29320 21-541, limits assumed); experiment: ELISA, plate coated with EphA3-Fc, detection with anti-human kappa chain HRP conjugate, A450
T2 construct: also called the antigen
T2 sequence (looked up): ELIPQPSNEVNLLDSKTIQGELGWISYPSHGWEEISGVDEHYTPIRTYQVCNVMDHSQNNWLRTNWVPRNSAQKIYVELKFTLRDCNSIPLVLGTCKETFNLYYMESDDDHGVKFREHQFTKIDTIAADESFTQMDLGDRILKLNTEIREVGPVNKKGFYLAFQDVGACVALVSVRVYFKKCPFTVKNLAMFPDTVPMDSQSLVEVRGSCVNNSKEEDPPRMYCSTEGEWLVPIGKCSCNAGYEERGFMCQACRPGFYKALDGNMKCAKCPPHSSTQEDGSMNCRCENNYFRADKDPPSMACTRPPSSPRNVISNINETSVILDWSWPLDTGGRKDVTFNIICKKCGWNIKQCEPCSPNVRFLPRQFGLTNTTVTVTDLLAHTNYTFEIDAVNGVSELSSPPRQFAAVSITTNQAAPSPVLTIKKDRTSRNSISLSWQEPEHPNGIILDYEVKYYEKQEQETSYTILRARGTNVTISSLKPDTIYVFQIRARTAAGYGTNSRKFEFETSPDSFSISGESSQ
Description: A full-length antibody (IgG1κ) was constructed, expressed from CHO cells and purified by Protein A affinity chromatography. ELISA plates were coated with EphA3-Fc and binding of cIIIA4 IgG, an exemplary engineered IgG, and a control IgG1 were compared (FIG. 3). The EC₅₀ in this assay was approximately three-fold lower for the engineered IgG than for the original chimeric antibody.

[3] = target: T3, EphA3 expressed on the surface of human cells (SKmel28 human melanoma, LnCAP prostate cancer line, primary … (human, UniProt P29320 21-983)); experiment: flow cytometry on live SKmel-28 cells, 5 ug/ml IgG, anti-human IgG phycoerythrin conjugate [SKmel-28]
T3 construct: whole, on cells; It gives no species for LnCAP, and the leukemia cells come from patients; also called SKme128; primary leukemia cells expressing EphA3
T3 sequence (looked up): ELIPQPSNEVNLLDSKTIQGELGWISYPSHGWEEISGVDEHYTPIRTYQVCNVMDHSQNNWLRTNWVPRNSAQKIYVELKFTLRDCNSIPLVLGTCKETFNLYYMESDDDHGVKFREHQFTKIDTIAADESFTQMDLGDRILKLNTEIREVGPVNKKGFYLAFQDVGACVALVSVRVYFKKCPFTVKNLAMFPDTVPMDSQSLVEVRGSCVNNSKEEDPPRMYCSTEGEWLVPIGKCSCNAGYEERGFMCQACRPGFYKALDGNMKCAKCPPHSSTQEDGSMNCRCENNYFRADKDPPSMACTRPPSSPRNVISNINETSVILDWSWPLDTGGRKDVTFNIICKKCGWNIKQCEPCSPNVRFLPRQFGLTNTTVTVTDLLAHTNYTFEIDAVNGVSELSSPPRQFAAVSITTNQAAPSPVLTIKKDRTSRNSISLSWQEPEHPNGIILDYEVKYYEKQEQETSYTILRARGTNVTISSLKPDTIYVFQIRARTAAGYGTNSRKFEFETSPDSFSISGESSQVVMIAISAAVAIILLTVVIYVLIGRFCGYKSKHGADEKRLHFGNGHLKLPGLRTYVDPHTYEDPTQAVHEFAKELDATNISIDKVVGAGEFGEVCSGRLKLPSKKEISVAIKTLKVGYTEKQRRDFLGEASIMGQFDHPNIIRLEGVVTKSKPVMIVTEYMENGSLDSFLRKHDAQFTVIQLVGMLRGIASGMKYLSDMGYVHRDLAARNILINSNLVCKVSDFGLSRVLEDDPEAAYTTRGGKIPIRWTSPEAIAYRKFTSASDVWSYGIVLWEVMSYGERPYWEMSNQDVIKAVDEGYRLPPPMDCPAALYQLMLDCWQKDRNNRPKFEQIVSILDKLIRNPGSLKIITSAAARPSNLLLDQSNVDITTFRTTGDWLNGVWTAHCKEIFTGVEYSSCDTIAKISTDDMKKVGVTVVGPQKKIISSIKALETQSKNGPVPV
Description: as §1, §2, §3

[4] = target: T2, EphA3-Fc recombinant fusion protein; experiment: SPR (Biacore), 25 C, low density surface, 1:1 model
Procedure: (§4) Binding kinetics of two engineered Fabs and reference Fab FA106 were analyzed using a Biacore. The three Fabs were diluted from the starting concentration of 500 nM to 100 nM and further tested in a three-fold dilution series using PBS, pH 7.4 with 0.005% Tween-20 and 0.1 mg/ml BSA. Each of the five concentrations was tested three times over the three different density surfaces. Assays were run at 25° C. The response data from each surface were fit to a 1:1 interaction model.

[5] = target: T2, EphA3-Fc recombinant fusion protein; experiment: SPR (Biacore), 25 C, high density surface, 1:1 model
Procedure: as §4

[6] = target: T2, EphA3-Fc recombinant fusion protein; experiment: SPR (Biacore), 25 C, medium density surface, 1:1 model
Procedure: as §4

[7] = target: T2, EphA3-Fc recombinant fusion protein; experiment: SPR (Biacore), 25 C, average of three surface densities, 1:1 model
Procedure: as §4

[8] = target: T2, EphA3-Fc recombinant fusion protein; experiment: SPR (Biacore), 25 C, low density surface, 1:1 model; low chip density
Procedure: as §4

[9] = target: T2, EphA3-Fc recombinant fusion protein; experiment: SPR (Biacore), 25 C, high density surface, 1:1 model; high chip density
Procedure: as §4

[10] = target: T2, EphA3-Fc recombinant fusion protein; experiment: SPR (Biacore), 25 C, medium density surface, 1:1 model; medium chip density
Procedure: as §4

binding result [1]: binds
EC50 (read off the curve) [2]: ~0.2 µg/mL
binding result [3]: binds
B1: Chimeric IIIA4 IgG (antibody, V domains shown)
VH: EVKLEESGAELVKPGSSVKLSCKASGYNFTSYWINWVRLRPGQGLEWIGDIYPGSGNTNYDEKFKRKATLTVDTSSSTAYMQLSSLASEDSALYYCTRSGYYEDFDSWGQGTTLIVSS
VL: DIVLTQTPSSLSASLEERVSLTCRASQEISGYLGWLQQKPDGTIKRLIYAASTLDSGVPKKFSGNRSGSEYSLTISSLESEDFADYYCVQYANYPYTFGGGTKLEIK
notes: also called original chimeric antibody

Kd [4]: 1.4 nM
kon [4]: 4.1e+06 M⁻¹ s⁻¹
Kd [5]: 2.06 nM
kon [5]: 1.67e+06 M⁻¹ s⁻¹
Kd [6]: 2.91 nM
kon [6]: 611000 M⁻¹ s⁻¹
Kd [7]: 2.1 nM
koff [7]: 0.003 s⁻¹
kon [7]: 2e+06 M⁻¹ s⁻¹
koff [8]: 0.0058 s⁻¹
koff [9]: 0.00345 s⁻¹
koff [10]: 0.00178 s⁻¹
B2: optimized reference Fab FA106 (Fab, V domains shown)
VH: B1 VH with S91T, L93V, T97A, L114V, I115T
VL: B1 VL with D85T, G100Q
notes: Fab derived from FA4 with several framework residues changed to human germ-line; Expressed in E. coli
